{"source": "paper PMC7193404", "about": "“FHF1 is a bona fide fibroblast growth factor that activates cellular signaling in FGFR-dependent manner” (Cell Communication and Signaling : CCS, 2020)", "binders": {"B1": {"name": "fibroblast growth factor homologous factor 1, short isoform (FHF1b) (ligand, human, UniProt P61328-2 1-181, looked up)", "chain": "MESKEPQLKGIVTRLFSQQGYFLQMHPDGTIDGTKDENSDYTLFNLIPVGLRVVAIQGVKASLYVAMNGEGYLYSSDVFTPECKFKESVFENYYVIYSSTLYRQQESGRAWFLGLNKEGQIMKGNRVKKTKPSSHFVPKPIEVCMYREPSLHEIGEKQGRSRKSSGTPTMNGGKVVNQDST", "notes": "short isoform (FHF1b) of human FHF1 (FGF12); construct in pDEST17; Construct from F. Nakayama; also called FGF12; source: E. coli BL21 CodonPlus (DE3) RIL, purified (His-Trap, desalting column)"}}, "target": "T1, extracellular region of FGFR1 fused to the Fc fragment (UniProt P11362 22-376)", "T1 construct": "extracellular region of FGFR1; also called FGFR1-Fc; source: produced in mammalian cells; as described previously [27-29]", "T1 sequence (looked up)": "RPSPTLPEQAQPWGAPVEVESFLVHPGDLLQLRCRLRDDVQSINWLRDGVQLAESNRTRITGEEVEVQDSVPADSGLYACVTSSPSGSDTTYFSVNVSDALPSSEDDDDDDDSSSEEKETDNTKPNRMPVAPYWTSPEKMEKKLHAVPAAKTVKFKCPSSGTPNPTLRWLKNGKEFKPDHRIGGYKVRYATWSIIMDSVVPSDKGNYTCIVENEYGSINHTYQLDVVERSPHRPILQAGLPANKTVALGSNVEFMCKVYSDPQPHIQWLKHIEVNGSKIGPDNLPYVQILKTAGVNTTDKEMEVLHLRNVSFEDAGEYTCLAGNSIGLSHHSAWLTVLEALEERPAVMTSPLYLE", "experiment": "SPR; Biacore 3000, 25 °C; FGFR1-Fc amine-coupled at low density (about 1000 RU) on CM4; FHF1 0.1-3.2 uM at 30 ul/min; PBS, 0.05% Tween 20, 0.2% BSA, 0.02% NaN3, pH 7.4; KD from fitted saturation binding curve (equilibrium responses); 1:1 model did not fit", "conditions": "both partners purified", "data": [{"binder": "B1", "values": [{"measurement": "Kd", "value": 612, "unit": "nM"}]}]}
